Assay results published in paper PMC11078986, “Structural basis and synergism of ATP and Na^+ activation in bacterial K^+ uptake system KtrAB” (Nature Communications, 2024).

T1: BsKtrA (Bacillus subtilis, UniProt O32080)
T1 construct: gene ktrA; tag-less BsKtrA (octamer) in the BsKtrAB complex; with BsKtrB
T1 sequence (O32080 1-222): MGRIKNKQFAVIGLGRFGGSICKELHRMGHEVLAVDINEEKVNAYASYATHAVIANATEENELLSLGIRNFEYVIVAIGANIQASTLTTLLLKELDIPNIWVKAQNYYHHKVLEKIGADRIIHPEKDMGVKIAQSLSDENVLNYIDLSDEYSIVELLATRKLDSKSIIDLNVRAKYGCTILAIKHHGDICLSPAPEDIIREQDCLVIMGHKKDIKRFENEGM
T1 sequence (O32081 1-445 partner): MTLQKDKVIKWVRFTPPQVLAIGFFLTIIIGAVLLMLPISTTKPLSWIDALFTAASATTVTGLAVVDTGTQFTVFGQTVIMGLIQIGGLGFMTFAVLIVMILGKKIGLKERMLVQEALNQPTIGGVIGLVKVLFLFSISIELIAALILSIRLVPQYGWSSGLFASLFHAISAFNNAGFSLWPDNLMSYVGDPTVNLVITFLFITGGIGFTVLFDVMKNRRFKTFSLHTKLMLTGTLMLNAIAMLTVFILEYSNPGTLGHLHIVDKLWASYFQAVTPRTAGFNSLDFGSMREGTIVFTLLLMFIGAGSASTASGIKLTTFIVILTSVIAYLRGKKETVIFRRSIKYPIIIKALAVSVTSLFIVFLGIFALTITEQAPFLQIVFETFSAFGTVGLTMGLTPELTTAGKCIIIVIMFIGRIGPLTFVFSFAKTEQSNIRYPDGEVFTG

B1: KtrB from Bacillus subtilis (BsKtrB) (natural protein)
chain: MTLQKDKVIKWVRFTPPQVLAIGFFLTIIIGAVLLMLPISTTKPLSWIDALFTAASATTVTGLAVVDTGTQFTVFGQTVIMGLIQIGGLGFMTFAVLIVMILGKKIGLKERMLVQEALNQPTIGGVIGLVKVLFLFSISIELIAALILSIRLVPQYGWSSGLFASLFHAISAFNNAGFSLWPDNLMSYVGDPTVNLVITFLFITGGIGFTVLFDVMKNRRFKTFSLHTKLMLTGTLMLNAIAMLTVFILEYSNPGTLGHLHIVDKLWASYFQAVTPRTAGFNSLDFGSMREGTIVFTLLLMFIGAGSASTASGIKLTTFIVILTSVIAYLRGKKETVIFRRSIKYPIIIKALAVSVTSLFIVFLGIFALTITEQAPFLQIVFETFSAFGTVGLTMGLTPELTTAGKCIIIVIMFIGRIGPLTFVFSFAKTEQSNIRYPDGEVFTG
notes: KtrB, transmembrane K+ permeation subunit of the K+ uptake system KtrAB, Bacillus subtilis; Membrane protein dimer in detergent (DDM, or 6-cyclohexyl-1-hexyl-beta-D-maltoside for cryo-EM); source: E. coli C43 (DE3), purified (DDM extraction, Ni-NTA, TEV cleavage, second Ni-NTA, SEC); not shown: His tag, N-terminal, cleaved

How the values were obtained:
BsKtrA = molecular target: T1, BsKtrA; test: cryo-EM structure of ADP-BsKtrAB at […] Å (Structure III); format: binding
[1] = molecular target: B1; test: cryo-EM structure; ATP-BsKtrAB (Structures I, II, IIa, IIb); BsKtrA and BsKtrB mixed 2:1 with 1 mM ATP, complex taken from SEC; Cryo-EM Buffer (20 mM Tris-HCl pH 8.0, 70 mM NaCl, 30 mM KCl, 0.75 mM 6-cyclohexyl-1-hexyl-beta-D-maltoside) with 1 mM ATP and 2 mM MgCl2, or 1 mM ATP, 2 mM EDTA and 1 mM EGTA; KtrB2A8B2 assembly; settings: both partners purified
[2] = molecular target: the molecule itself; test: as above

Molecule	cryo-EM structure of ADP-BsKtrAB at 2.8 Å (Structure III) (BsKtrA)	binding result [1]	stoichiometry N [2]
Nc1ncnc2c1ncn2[C@@H]1O[C@H](COP(=O)(O)OP(=O)(O)O)[C@@H](O)[C@H]1O [ADP]	ATP and ADP share the same binding site located at the intra-dimer interface of KtrA RCK_N subdomains		
KtrA from Bacillus subtilis (BsKtrA) (natural protein, KtrA, regulatory RCK subunit of the K+ uptake system KtrAB, Bacillus subtilis; tag-less; Octameric ring (tetramer of homodimers); Used with ATP, with ADP or as apo protein; also called ATP-BsKtrA; ADP-BsKtrA; source: E. coli BL21(DE3), purified (anion exchange, N6-hexyl-ATP agarose, dialysis, SEC)) MGRIKNKQFAVIGLGRFGGSICKELHRMGHEVLAVDINEEKVNAYASYATHAVIANATEENELLSLGIRNFEYVIVAIGANIQASTLTTLLLKELDIPNIWVKAQNYYHHKVLEKIGADRIIHPEKDMGVKIAQSLSDENVLNYIDLSDEYSIVELLATRKLDSKSIIDLNVRAKYGCTILAIKHHGDICLSPAPEDIIREQDCLVIMGHKKDIKRFENEGM		binds	8
B1			2
